Laboratory results: US20040203067

Biological target: STAT-3 (endogenous, in 32Dcl3-derived cells) (UniProt P42227)
Sequence (P42227 2-770): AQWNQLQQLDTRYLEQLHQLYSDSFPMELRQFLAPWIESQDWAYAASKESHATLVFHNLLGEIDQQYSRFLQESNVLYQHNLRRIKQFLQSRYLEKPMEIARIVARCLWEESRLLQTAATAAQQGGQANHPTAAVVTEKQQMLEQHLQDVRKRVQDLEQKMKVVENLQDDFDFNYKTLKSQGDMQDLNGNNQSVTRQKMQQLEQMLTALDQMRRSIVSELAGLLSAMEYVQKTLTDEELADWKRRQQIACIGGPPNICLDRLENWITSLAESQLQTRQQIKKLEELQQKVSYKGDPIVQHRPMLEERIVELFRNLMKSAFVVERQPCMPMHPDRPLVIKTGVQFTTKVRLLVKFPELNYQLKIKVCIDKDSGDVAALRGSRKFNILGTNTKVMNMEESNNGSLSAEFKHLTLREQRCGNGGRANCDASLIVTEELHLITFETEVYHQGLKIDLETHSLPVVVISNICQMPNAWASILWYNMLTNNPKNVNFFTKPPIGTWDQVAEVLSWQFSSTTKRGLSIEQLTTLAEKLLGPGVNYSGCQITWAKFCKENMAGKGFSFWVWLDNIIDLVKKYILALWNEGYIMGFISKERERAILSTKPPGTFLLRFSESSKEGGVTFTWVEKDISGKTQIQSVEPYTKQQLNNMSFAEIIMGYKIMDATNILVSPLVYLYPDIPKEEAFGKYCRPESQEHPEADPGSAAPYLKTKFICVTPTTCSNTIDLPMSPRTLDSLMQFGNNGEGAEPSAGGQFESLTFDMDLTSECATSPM

## c-Src (endogenous, activated, in IL-3 stimulated 32Dcl3 cells)
  tyrosine phosphorylation of STAT-3 (4G10 Western blot of STAT-3 immunoprecipitates): phosphorylation of STAT-3 following IL-3 stimulation of 32Dcl3 cells is blocked by AMSrc
